Assay results taken from patent US20090311714.

What was measured:
[1] = target: UDP-MurNAc-L-Ala-D-iGlu-L-Lys-D-Ala-D-Ala
[2] = target: T1, N-alpha,N-epsilon-diacetyl-L-lysyl-D-alanine
T1 chain: KA

[3] = target: T2, L-Ala-D-iGlu-L-Lys-D-Ala (not fully specified)
T2 chain: AEKA

[4] = target: GlcNAc-MurNAc-L-Ala-D-iGlu-L-(N-epsilon-D-iAsn)Lys-D-Ala-D-Ala
[5] = target: L-Ala-D-iGlu-L-Lys-D-Ala-D-Ala
[6] = target: T3, GlcNAc-MurNAc-L-Ala-D-iGln-L-(N-epsilon-D-iAsn)Lys-D-Ala
T3 chain: AQKA

[7] = target: T4, UDP-MurNAc-L-Ala-D-iGlu-L-Lys-D-Ala (not fully specified)
T4 chain: AEKA

[8] = target: T5, GlcNAc-MurNAc-L-Ala-D-iGlu-L-(N-epsilon-D-iAsn)Lys-D-Ala (not fully specified)
T5 chain: AEKA

[9] = target: T6, GlcNAc-MurNAc-L-Ala-D-iGln-L-Lys-D-Ala
T6 chain: AQKA

Protein | formation of [14C]UDP-MurNac-hexapeptide in the D-aspartate ligase assay [1] | formation of radioactive peptides in the exchange assay with D-[14C]Ala as the acceptor [2] | formation of radioactive peptides in the exchange assay with D-[14C]Ala as the acceptor [3] | formation of radioactive peptides in the exchange assay with D-[14C]Ala as the acceptor [4] | formation of radioactive peptides in the exchange assay with D-[14C]Ala as the acceptor [5] | formation of dimers, by mass spectrometry (in vitro L,D-transpeptidation) [6] | formation of radioactive peptides in the exchange assay with D-[14C]Ala as the acceptor [7] | formation of radioactive peptides in the exchange assay with D-[14C]Ala as the acceptor [1] | formation of radioactive peptides in the exchange assay with D-[14C]Ala as the acceptor [8] | formation of dimers, by mass spectrometry (in vitro L,D-transpeptidation) [9]
D-aspartate ligase of Enterococcus faecium (Aslfm) (protein) MMNSIENEEFIPILLGSDMNVYGMARSFNEAYGKICQAYASDQLAPTRYSKIVNVEVIPGFDKDPVFIETMLRLAKERYSDKSKKYLLIACGDGYAELISQHKQELSEYFICPYIDYSLFERLINKVSFYEVCEEYDLPYPKTLIVREEMLVNGHLEQELPFEFPVALKPANSVEYLSVQFEGRKKAFILETREEFDLILGRIYEAGYKSEMIVQDFIPGDDSNMRVLNAYVDEDHQVRMMCLGHPLLEDPTPASIGNYVVIMPDYNEKIYQTIKAFLEKIEYTGFANFDMKYDPRDGEYKLFEINLRQGRSSFFVTLNGLNLARFVTEDRVFNKPFVETTYGTNQSDKARLWMGVPKKIFLEYARENEDKKLAEQMIKENRYGTTVFYEKDRSIKRWLLMKYMFHNYIPRFKKYFHVKEG | Addition of 2 µg of purified protein in the D-aspartate ligase assay resulted in the formation of a radioactive product corresponding to the labeled hexapeptide | – | – | – | – | – | – | – | – | –
L,D-transpeptidase of Enterococcus faecium M512 (Ldtfm), soluble recombinant fragment, residues 119 to 466, with C-terminal polyhistidine tag (protein) MAEKQEIDPVSQNHQKLDTTVQTLTTKLTDLNKDRTPTTDATIEKAGDSFVIKPEVNGNTIDVDAAVKQLKSAVNSGKDTIELTEFKEKPKVTSEDSSLKEQLASMNAIANVKATYSINGETFQIPSSDIMSWLTYNDGKVDLDTEQVRQYVTDLGTKYNTSTNDTKFKSTKRGEVTVPVGTYSWTIQTDSETEALKKAILAGQDFTRSPIVQGGTTADHPLIEDTYIEVDLENQHMWYYKDGKVALETDIVSGKPTTPTPAGVFYVWNKEEDATLKGTNDDGTPYESPVNYWMPIDWTGVGIHDSDWQPEYGGDLWKTRGSHGCINTPPSVMKELFGMVEKGTPVLVFGSHHHHHH | – | Formation of radioactive peptides was observed not only with Ac2-L-Lys-D-Ala | Formation of radioactive peptides was observed ... with other donors containing a tetrapeptide ending in D-Ala | Formation of radioactive peptides was not detected | Formation of radioactive peptides was not detected | formation of dimers with two types of donors (tetrapeptide and tetrapeptide-iAsn) and two types of acceptors (tetrapeptide-iAsn and tripeptide-iAsn) in the four possible combinations | Formation of radioactive peptides was observed ... with other donors containing a tetrapeptide ending in D-Ala | Formation of radioactive peptides was not detected | Formation of radioactive peptides was observed ... also with the complete disaccharide-tetrapeptide(iAsn) peptidoglycan unit | formation of dimers with two types of donors (tetrapeptide and tetrapeptide-iAsn) ...; The muropeptide containing an unsubstituted tetrapeptide stem was not used as an acceptor
